In assay [1] the target is T1, CD20-biotin (Miltenyi Biotec) (UniProt P11836 142-188, limits assumed, biotin (site not stated)).
T1 construct: Bought staining reagent, 0.1 ug/sample, detected with streptavidin conjugate; also called recombinant CD20; CD20 biotin reagent
T1 chain (looked up): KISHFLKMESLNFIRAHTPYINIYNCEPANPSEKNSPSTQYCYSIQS
Description: flow cytometry, CAR T cells stained with CD19-Fc and CD20-biotin. The procedure:
(§1) Cells were washed twice and resuspended in 200 ul Staining Buffer before quantitative analysis by flow cytometry.
On the technique in general: A flow cytometer gives signals particle by particle.

The target in assay [2] is T2, CD19-Fc (R&D Biosystems) (UniProt P15391 20-291).
T2 construct: Bought staining reagent, 1 ug/sample; also called recombinant CD19; not shown: Fc part of the bought reagent (detected with goat anti-human Fc-gamma)
T2 sequence (looked up): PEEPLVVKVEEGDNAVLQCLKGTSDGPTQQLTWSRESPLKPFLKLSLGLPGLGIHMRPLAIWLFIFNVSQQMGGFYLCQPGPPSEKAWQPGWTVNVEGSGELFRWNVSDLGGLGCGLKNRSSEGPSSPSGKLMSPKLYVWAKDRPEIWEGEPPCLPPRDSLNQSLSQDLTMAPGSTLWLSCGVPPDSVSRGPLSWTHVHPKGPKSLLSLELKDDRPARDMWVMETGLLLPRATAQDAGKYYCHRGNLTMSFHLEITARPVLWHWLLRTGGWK
The description is as above. The procedure: as §1

B1: CAR LTG2200 (LP-2200-CD8 TM-41BB-CD3zeta) (other)
chain: QVQLQQSGPGLVKPSQTLSLTCAISGDSVSSNSAAWNWIRQSPSRGLEWLGRTYYRSKWYNDYAVSVKSRITINPDTSKNQFSLQLNSVTPEDTAVYYCAREVTGDLEDAFDIWGQGTMVTVSSGGGGSGGGGSGGGGSDIQMTQSPSSLSASVGDRVTITCRASQTIWSYLNWYQQRPGKAPNLLIYAASSLQSGVPSRFSGRGSGTDFTLTISSLQAEDFATYYCQQSYSIPQTFGQGTKLEIKAAATTTPAPRPPTPAPTIASQPLSLRPEACRPAAGGAVHTRGLDFACDIYIWAPLAGTCGVLLLSLVITLYCKRGRKKLLYIFKQPFMRPVQTTQEEDGCSCRFPEEEEGGCELRVKFSRSADAPAYQQGQNQLYNELNLGRREEYDVLDKRRGRDPEMGGKPRRKNPQEGLYNELQKDKMAEAYSEIGMKGERRRGKGHDGLYQGLSTATKDTYDALHMQALPPR
notes: Chimeric antigen receptor with the m971 anti-CD22 scFv on primary human T cells; The entry includes the leader peptide; also called 22-BBz; CAR22 LTG2200
With B1, the values for the binding result in assay [1] and in assay [2] were “no binding (tested: 0.1 ug/sample)” and “no binding (tested: 1 ug/sample)”, respectively.

(Values after patent US20200231648A1 (LENTIGEN TECHNOLOGY, published 2020).)
